Experimental data from patent publication US20180171027A1 (Celldex Therapeutics, Inc., priority 2015, published 2018).
One block for each molecule: values may come before it.

Key:
ErbB3 [1] = target: T1, ErbB3 (Homo sapiens, UniProt P21860); experiment: ErbB phosphorylation (Theranostics Health platform): ErbB3 activation (pErbB3); type: cell-based; design: endogenous in cells; host or cells: SCCHN cell lines (Cal27, FaDu, UNC7, SCC61 and others); conditions: Cal27 cells, similar results in FaDu
Experimental: ErbB phosphorylation was measured using the Theranostics Health platform.

ErbB3 [2] = target: T1, ErbB3; experiment: cell-based or functional assay
ErbB3 [3] = target: T1, ErbB3
ErbB3 [4] = target: T1, ErbB3; experiment: ErbB3 phosphorylation ELISA, titration of purified NRG proteins on T47D cells; type: cell-based; design: endogenous in cells
Experimental: Genes encoding the full extracellular domains of each NRG gene and isoform (NRG1α, NRG1β, NRG2α, and NRG2β) were modified to encode a signal peptide at their 5′ end, in order to induce secretion, and a His-tag at their 3′ end. Constructs were transfected into HEK293 cells and conditioned media was treated with NaCl to a final concentration of 0.5 M. NRG-containing media was purified by NiNTA chromatography and eluted with stepwise increases in imidazole in a phosphate buffer containing 0.5 M NaCl. NRG-containing fractions were pooled and further purified by size-exclusion chromatography with a mobile phase consisting of a phosphate-based buffer with 0.5 M NaCl. Purified NRG proteins were titrated on T47D breast cancer cells (which naturally express all ErbB receptors) for 10 minutes at 37° C. ErbB3 phosphorylation was measured by ELISA.

ErbB3 [5] = target: T1, ErbB3; experiment: cell-based or functional assay; remark: listed apart in the source

activation of ErbB3 (ErbB3 [1]; presence of NRG): blocked activation
Molecule: pertuzumab: anti-ErbB2 monoclonal antibody [reference compound]
inhibiting or blocking EGF-stimulated activation of ErbB3 (ErbB3 [1]; presence of EGF): neither pertuzumab nor 2C2-YTE were capable of inhibiting or blocking

EC50 (read off the curve), ErbB3 phosphorylation in T47D cells (ELISA) [panel B] (ErbB3 [3]): 7 nM
B2: NRG2β full extracellular domain, His-tagged (ligand, UniProt O14511 112-405, looked up, not shown: small tags and cut ends)
chain: CYSPSLKSVQDQAYKAPVVVEGKVQGLVPAGGSSSNSTREPPASGRVALVKVLDKWPLRSGGLQREQVISVGSCVPLERNQRYIFFLEPTEQPLVFKTAFAPLDTNGKNLKKEVGKILCTDCATRPKLKKMKSQTGQVGEKQSLKCEAAAGNPQPSYRWFKDGKELNRSRDIRIKYGNGRKNSRLQFNKVKVEDAGEYVCEAENILGKDTVRGRLYVNSVSTTLSSWSGHARKCNETAKSYCVNGGVCYYIEGINQLSCKCPNGFFGQRCLEKLPLRLYMPDPKQKAEELYQKR

Continued, molecule first:

Molecule: NRG1β full extracellular domain, His-tagged (from UniProt Q02297 20-242) (ligand)
potency of ErbB3 phosphorylation relative to the other NRG isoforms, T47D cells (ErbB3 [2]): 10 fold
EC50 (read off the curve), ErbB3 phosphorylation in T47D cells (ELISA) [panel B] (ErbB3 [3]): 1 nM

B1: NRG1β: purified His-tagged full extracellular domain of neuregulin isoform, recombinantly expressed by HEK293 cells (protein, UniProt Q02297 20-242, looked up)
extracellular domain: SGKKPESAAGSQSPALPPRLKEMKSQESAAGSKLVLRCETSSEYSSLRFKWFKNGNELNRKNKPQNIKIQKKPGKSELRINKASLADSGEYMCKVISKLGNDSASANITIVESNEIITGMPASTEGAYVSSESPIRISVSTEGANTSSSTSTSTTGTSHLVKCAEKEKTFCVNGGECFMVKDLSNPSRYLCKCQPGFTGARCTENVPMKVQNQEKAEELYQKR
modifications: extracellular domain His tag
notes: purified His-tagged full extracellular domain of neuregulin isoform, recombinantly expressed by HEK293 cells
potency of ErbB3 activation relative to the other NRG isoforms (ErbB3 [4]): approximately 10 fold

B3: 2C2-YTE anti-HER3 antibody (antibody, human IgG1, V domains shown)
VH: EVQLLESGGGLVQPGGSLRLSCAASGFTFSYYYMQWVRQAPGKGLEWVSYIGSSGGVTNYADSVKGRFTISRDNSKNTLYLQMNSLRAEDTAVYYCARVGLGDAFDIWGQGTMVTVSS
VL: QSVLTQPPSASGTPGQRVTISCSGSLSNIGLNYVSWYQQLPGTAPKLLISRNNQRPSGVPDRFSGSKSGTSASLAISGLRSEDEADYYCAAWDDSPPGEAFGGGTKLTVL
pY-H3 (VeraTag phosphorylated ErbB3), 4213 non-cancerous skin cell line, 2C2-YTE treatment (ErbB3 [5]): 0.6
pY-H3 (VeraTag phosphorylated ErbB3), 4213 non-cancerous skin cell line, control IgG1 treatment (baseline for 2C2-YTE) (ErbB3 [5]): 0.5
pY-H3 (VeraTag phosphorylated ErbB3), CAL27 cells, 2C2-YTE treatment (ErbB3 [5]): 0.6
pY-H3 (VeraTag phosphorylated ErbB3), CAL27 cells, control IgG1 treatment (baseline for 2C2-YTE) (ErbB3 [5]): 4.6
pY-H3 (VeraTag phosphorylated ErbB3), SCC35 cells, 2C2-YTE treatment (ErbB3 [5]): 0.4
pY-H3 (VeraTag phosphorylated ErbB3), SCC35 cells, control IgG1 treatment (baseline for 2C2-YTE) (ErbB3 [5]): 1.1
pY-H3 (VeraTag phosphorylated ErbB3), SCC61 cells, 2C2-YTE treatment (ErbB3 [5]): 0.6
pY-H3 (VeraTag phosphorylated ErbB3), SCC61 cells, control IgG1 treatment (baseline for 2C2-YTE) (ErbB3 [5]): 6.1
pY-H3 (VeraTag phosphorylated ErbB3), UNC7 cells, 2C2-YTE treatment (ErbB3 [5]): 0.4
pY-H3 (VeraTag phosphorylated ErbB3), UNC7 cells, control IgG1 treatment (baseline for 2C2-YTE) (ErbB3 [5]): 3.5
pY-H3 (VeraTag phosphorylated ErbB3), UNC10 cells, control IgG1/2C2-YTE (one value given) (ErbB3 [5]): 0
pY-H3 pharmacodynamic (PD) ratio, 4213 non-cancerous skin cell line (ErbB3 [5]): 1
pY-H3 pharmacodynamic (PD) ratio, CAL27 cells (ErbB3 [5]): 7.5
pY-H3 pharmacodynamic (PD) ratio, SCC35 cells (ErbB3 [5]): 2.8
pY-H3 pharmacodynamic (PD) ratio, SCC61 cells (ErbB3 [5]): 10.6
pY-H3 pharmacodynamic (PD) ratio, UNC7 cells (ErbB3 [5]): 8.4
pY-H3 pharmacodynamic (PD) ratio, UNC10 cells (ErbB3 [5]): 0
